In patent US20230322857A1, “RECOMBINANTLY ENGINEERED POLYPEPTIDES CAPABLE OF RECYCLING NONCANONICAL COFACTORS” (The Regents of the University of California, priority 2022, published 2023):
Where a chain is given by its changes, count along the chain named. Numbers in names are those of the source.

B1: wild type Bs GDH: wild type Bacillus subtilis glucose dehydrogenase, reduces NAD(P)^+ but not NMN^+ (protein, UniProt P12310 1-261, looked up)
Glucose 1-dehydrogenase: MYPDLKGKVVAITGAASGLGKAMAIRFGKEQAKVVINYYSNKQDPNEVKEEVIKAGGEAVVVQGDVTKEEDVKNIVQTAIKEFGTLDIMINNAGLENPVPSHEMPLKDWDKVIGTNLTGAFLGSREAIKYFVENDIKGNVINMSSVHEVIPWPLFVHYAASKGGIKLMTETLALEYAPKGIRVNNIGPGAINTPINAEKFADPKQKADVESMIPMGYIGEPEEIAAVAAWLASKEASYVTGITLFADGGMTQYPSFQAGRG
B2: TS-PTDH A155N: Pseudomonas stutzeri phosphite dehydrogenase with A155N substitution (SEQ ID NO:3) (protein)
chain: MLPKLVITHRVHEEILQLLAPHCELITNQTDSTLTREEILRRCRDAQAMMAFMPDRVDADFLQACPELRVIGCALKGFDNFDVDACTARGVWLTFVPDLLTVPTAELAIGLAVGLGRHLRAADAFVRSGKFRGWQPRFYGTGLDNATVGFLGMGNIGLAMADRLQGWGATLQYHEAKALDTQTEQRLGLRQVACSELFASSDFILLALPLNADTLHLVNAELLALVRPGALLVNPCRGSVVDEAAVLAALERGQLGGYAADVFEMEDWARADRPQQIDPALLAHPNTLFTPHIGSAVRAVRLEIERCAAQNILQALAGERPINAVNRLPKANPAAD
B3: LY-7: phosphite dehydrogenase variant with A155N, E175W, A176G, L208V (SEQ ID NO:5) (protein)
chain: B2 chain with E175W, A176G, L208V

Key:
[1] = tested on: E. coli SHuffle strain; test: GDH-Gor coupled growth rescue in SHuffle strain; format: cell-based, Escherichia coli; conditions: 0.5 mM diamide, NMN^+ 0, 2, 4 and 6 mM
Description: Culture conditions for GDH-Gor coupled growth rescue in SHuffle strain. The electro-competent cells of SHuffle harboring pLZ311 or pLZ312 were made as follows: The SHuffle cells were cultured in 200 mL SOB media with spectinomycin at 30° C. with shaking until OD600 reached 0.4-0.6. The culture was chilled on ice for 15 min and the cells were pelleted at 4° C., 4,000×g. Collected cells were washed with 10% glycerol in water (sterile, ice cold) and resuspended with 5 mL of 10% glycerol in water (sterile, ice cold), and stored as 50 μL aliquots at −80° C.
Glucose facilitator (encoded by glf) was used for uptake of unphosphorylated glucose into the cells. The co-transformation of Bs gdh and Zm glf was performed as follows: Thaw SHuffle/pLZ311 or SHuffle/pLZ312 electro-competent cells on ice, add 1 μL Bs gdh (pEK101 or pLZ210) and 1 μL Zm glf(pSM109) plasmid DNA to 50 μL competent cells, mix, and electroporate. Cells were recovered with 1 mL SOC at 37° C. with shaking for 1 h. The cells were added to 10 mL 2×YT with 10 g/L glucose, 0.5% arabinose, kanamycin, chloramphenicol, and ampicillin. After incubation at 37° C. with shaking for 10 h, 1 mL cells were washed 3 times and re-suspended in M9 buffer (1×BD Difco M9 Salts). Targeted dilutions after cells reached density of OD600 0.6 were prepared in M9 buffer and 5 μL aliquots were dispensed in series on an agar plate of M9 selection media containing 0.5 mM diamide, 1 g/L yeast extract, 10 g/L glucose, 0.5% arabinose, 0.5 mM IPTG, ampicillin, kanamycin, chloramphenicol and serial NMN concentrations of 0, 2, 4 and 6 mM. Selection plates were incubated at 37° C., and photos were taken to document growth progress.

[2] = Steady-state kinetics of TS-PTDH variants with NADP^+; format: biochemical; conditions: 100 mM MOPS, pH 7.25, 10 mM sodium phosphite, varied cofactor concentrations; n = 3
Description: (§1) Purification and Characterization of TS-PTDH Variants. The E. coli BL21(DE3) strains harboring pQElac plasmids encoding the TS-PTDH or TS-PTDH variants were grown in 2×YT media with kanamycin and ampicillin at 37° C. The IPTG-inducible expression, Ni-affinity purification, and protein concentration determination was conducted as described above.
(§2) The steady-state kinetic parameters toward the coenzymes were measured by spiking purified protein into a 100 μL reaction mixture containing 100 mM MOPS, pH 7.25, 10 mM sodium Pt, and varied cofactor concentrations from 0.02 mM to 5 mM at 25° C. The kinetic parameters were measured by monitoring the […] of reduced coenzyme at 340 nm. Data were fitted to the Michaelis-Menten equation to generate estimates of KM and kcat values.

[3] = Steady-state kinetics of TS-PTDH variants with NAD^+; format: biochemical; conditions: 100 mM MOPS, pH 7.25, 10 mM sodium phosphite, varied cofactor concentrations; n = 3
Description: as §1, §2

[4] = Steady-state kinetics of TS-PTDH variants with NMN^+; format: biochemical
Description: as §1, §2

[5] = tested on: E. coli SHuffle strain; test: Recapitulation of growth restoration with TS-PTDH variants in SHuffle strain; format: cell-based, Escherichia coli; conditions: spotted onto agar selection plates
Description: Selection of TS-PTDH Library. A total of 50 μL pre-made SHuffle/pLZ311 or SHuffle/pLZ312 electro-competent cells were transformed with 2 μL TS-PTDH A155N-E175-A176-L208 NNK library DNA (pLZ316) via electroporation as described above. After rescue in SOC media for 1 h, cultures were combined in 10 mL 2×YT with 10 g/L glucose, 0.5% arabinose, kanamycin and ampicillin. 0.2, or 1 μL of culture was immediately taken from the culture and plated on an 2×YT agar plates with kanamycin and ampicillin. The plate was incubated at 37° C. overnight, and the number of colonies formed was counted to estimate the library size. The liquid cultures were incubated at 37° C. with shaking for 10 h. Cells (1 mL) were washed 3 times and re-suspended in M9 Buffer. Targeted serial dilutions of cells were prepared in M9 buffer and 5 μL aliquots were dispensed in series on an agar plate of M9 selection media containing 0.5 mM diamide, 5 or 1 g/L yeast extract, 10 g/L glucose, 0.5% arabinose, 0.5 mM IPTG, 10 g/L sodium phosphite, kanamycin, ampicillin, and 5 mM NMN^+. Selection plates were incubated at 37° C., and photographs were taken to document growth progress. The independent transformants sampled was calculated as 2.4×10^6 and 2.5×10^6 colonies when plated on 5 and 1 g/L yeast extract, respectively. TS-PTDH and the template of the library, TS-PTDH A155N, were cultured in the same conditions as controls. The colonies were numbered by the order of appearance. The selected cells were re-streaked on fresh agar plate with identical media and incubated until single colonies formed on the plate. Variants that cannot forma single colony may be false positives. After extracting the plasmids from each re-streaked colony, the chosen TS-PTDH variants were amplified and moved into the pQElac vector containing a N-terminal 6×His tag for protein purification and characterization. […] 2 μL of a serial dilution of cells were deposited onto a growth selection plate and grown at 37° C.

[6] = BNA(H)-mediated PTDH biotransformation with TsOYE; format: biochemical
Description: BNA(H)-Mediated PTDH Biotransformation. Reactions with BNA^+, see FIG. 10D, contained 100 mM MOPS-NaOH at pH 7.6, 10 mM KIP, 100 mM sodium phosphite, and 2% v/v DMSO. BNA^+Cl^−, prepared by refluxing equimolar amounts of nicotinamide and benzyl chloride in acetonitrile overnight, followed by precipitation with diethyl ether on ice was supplied to the reactions at final concentrations of 0, 5, 10, or 20 mM. Reactions were initiated by spiking TsOYE and the appropriate TS-PTDH variant to a final concentration of 10 μM, each. Reaction mixtures were incubated at 30° C. on a Thermomixer C (Eppendorf) with shaking at 900 rpm for 24 h, extracted with 500 μL ethyl acetate containing 5 mM n-dodecane, and analyzed by GC-FID. The cycling system with no BNA was used to determine the background activity of the cycling systems. This value was subtracted from the final levodione concentrations in the 5-, 10-, and 20-mM samples to determine the BNA(H)^− specific levodione production. Concentrations of levodione product were determined using a calibration line (0-10 mM, 6 levels, using n-dodecane as internal standard). The y-intercept of the calibration line was forced through 0.
For BNA(H)-mediated reactions, gas chromatography analyses were performed on a GC-2010 (Shimadzu, Japan) equipped with an AOC-20i auto injector and a flame ionization detector (FID), using a CP-Sil 5 column (25 m×0.25 mm×[…]). 1 μL of sample was injected with a split ratio of 100:1 and injector at 340° C. The FID was maintained at 360° C. Nitrogen was used as the carrier gas, with a linear velocity of 30 cm/s. The oven was held at 135° C. for 1 min, ramped at 15° C./min to 215° C., then 30° C./min to 345° C., and held at 345° C. for 1 min.
Expression and Purification of Proteins for BNA(H)-Mediated Biotransformation Reactions. E. coli BL21(DE3) strains were transformed with the plasmids containing the TS-PTDH variants and grown on LB-agar plates containing ampicillin at 37° C. overnight. An overnight culture, 15 mL LB supplemented with ampicillin, was inoculated with a single colony, and grown at 37° C., 170 rpm overnight. 2 L baffled shake-flasks with 250 mL of 2×YT media containing 200 μg/mL ampicillin, were inoculated with the overnight culture, grown at 37° C., 170 rpm until OD600 of ˜1.0, induced with IPTG (0.5 mM), and grown at 30° C. and 170 rpm for 24 h. Cells were harvested by centrifugation at 18,000×g, 4° C., 10 min and stored at −20° C. until purification.
The pellet was resuspended in four volumes loading buffer (50 mM sodium phosphate, 300 mM sodium chloride, 10 mM imidazole, pH 7.7), and lysed on ice by sonication (Branson sonifier 250; 15 min total, 40% duty cycle, output control 3.5, 2 mm tip). The lysate was clarified (21,000×g, 4° C., 30 min followed by 0.2 μm filtration), and loaded (1 mL/min) onto a Nickel-HisTrap FF crude (1 mL) column, washed with loading buffer (12 column volumes, CV), followed by a step with 10% elution buffer (loading buffer containing 250 mM imidazole; 12 CV). The protein was then eluted with 100% elution buffer and collected in fractions of 0.5 mL. Fractions containing protein were combined and dialyzed against ice-cold dialysis buffer (50 mM sodium phosphate, pH 7.7, 800 mL); the buffer was renewed after the first 2 h of dialysis. Following the dialysis, the protein was mixed with glycerol (20% v/v final concentration). Enzyme concentrations were estimated by the absorbance at 280 nm (non-denatured protein), using predicted extinction coefficients (wild type and LY-13: 26470, LY-7: […]; web.expasy.org/protparam/). The protein was aliquoted, flash frozen in liquid nitrogen, and stored at −80° C. until use. […]

[7] = 100 mM MOPS, pH 7.25, 10 mM sodium phosphite, varied cofactor concentrations, n = 3

Row | Molecule | cell growth of SHuffle strain harboring Gor Ortho with the NMN^+-reducing enzyme [1] | Km [2] [µM] | NADP^+ kcat [2] [s⁻¹] | Km [3] [µM] | NAD^+ kcat [3] [s⁻¹] | Km ([4]; enzyme could not be saturated, 100 mM MOPS, pH 7.25, 10 mM sodium phosphite) [µM] | increase in catalytic efficiency for NMN^+ compared to TS-PTDH (wild type enzyme) ([4]; vs TS-PTDH) [fold] | growth restoration, co-expression with NMNH-specific Gor Ortho [5] | Km [4, 7] [µM] | NMN^+ kcat [4, 7] [s⁻¹] | increased catalytic efficiency (kcat/Km) for NMN^+ compared to TS-PTDH A155N ([4]; vs parent enzyme TS-PTDH A155N) [fold] | activity / cycling with BNA^+ compared to wild type [6] | response of biotransformation efficiency to BNA^+ concentration ([6]; 0, 5, 10, or 20 mM BNA^+) | utilization of the BNA^+ pool relative to the wild type protein ([6]; 20 mM BNA^+ supplementation, TsOYE, 24 h)
1 | B1 | did not support cell growth |  |  |  |  |  |  |  |  |  |  |  |  | 
2 | B2 |  | 630 ± 70 | 0.88 ± 0.08 | 80 ± 10 | 1.46 ± 0.13 | > 5000 | ~30 | restored growth at a low level |  |  |  |  |  | 
3 | B3 |  | 110 ± 10 | 0.56 ± 0.03 | 750 ± 30 | 0.71 ± 0.04 |  |  |  | 1400 ± 100 | 0.16 ± 0.01 | ~11 | enhanced activity for BNA^+ reduction | cofactor dose-dependent response | improved utilization of the BNA^+ pool
